Test results reported in patent US20230242611A1 (YEDA RESEARCH AND DEVELOPMENT, published 2023).

T1: MAGE-A1 278-286 with alanine at position 7 peptide on HLA-A*02:01 (human)
T1 peptide: KVLEYVAKV

T2: MAGE-A1 278-286 with alanine at position 8 peptide on HLA-A*02:01 (human)
T2 peptide: KVLEYVIAV

T3: MAGE-A1 278-286 with alanine at position 9 peptide on HLA-A*02:01 (human)
T3 peptide: KVLEYVIKA

T4: MUC1 peptide on HLA-A*02:01 (human)
T4 peptide: LLLTVLTVV

T5: MAGE-A1 278-286 with alanine at position 1 peptide on HLA-A*02:01 (human)
T5 peptide: AVLEYVIKV

T6: MAGE-A1 278-286 with alanine at position 2 peptide on HLA-A*02:01 (human)
T6 peptide: KALEYVIKV

T7: MAGE-A1 278-286 with alanine at position 3 peptide on HLA-A*02:01 (human)
T7 peptide: KVAEYVIKV

T8: MAGE-A1 278-286 with alanine at position 4 peptide on HLA-A*02:01 (human)
T8 peptide: KVLAYVIKV

T9: MAGE-A1 278-286 with alanine at position 5 peptide on HLA-A*02:01 (human)
T9 peptide: KVLEAVIKV

T10: MAGE-A1 278-286 with alanine at position 6 peptide on HLA-A*02:01 (human)
T10 peptide: KVLEYAIKV

T11: MAGE-A1 peptide on HLA-A*02:01 (human)
T11 chain: KVLEYVIKV

T12: MAGE-A1 peptide on HLA-A*02:01 (human)
T12 peptide: KVLEYVIKV


Experiments:
[1] = biological target: MAGE-A1278-286 peptide presented on HLA-A2 on cells (peptide-loaded T2 cells; 721.211-A2 MAGE-A1+ cells) (human); assay: cell-based or functional assay
[2] = biological target: T1, MAGE-A1 278-286 with alanine at …; assay: cytokine release
[3] = biological target: T2, MAGE-A1 278-286 with alanine at …; assay: cytokine release
[4] = biological target: T3, MAGE-A1 278-286 with alanine at …; assay: cytokine release
[5] = biological target: T4, MUC1 peptide on HLA-A*02:01; assay: cytokine release
[6] = biological target: T5, MAGE-A1 278-286 with alanine at …; assay: cytokine release
[7] = biological target: T6, MAGE-A1 278-286 with alanine at …; assay: cytokine release
[8] = biological target: T7, MAGE-A1 278-286 with alanine at …; assay: cytokine release
[9] = biological target: T8, MAGE-A1 278-286 with alanine at …; assay: cytokine release
[10] = biological target: T9, MAGE-A1 278-286 with alanine at …; assay: cytokine release
[11] = biological target: T10, MAGE-A1 278-286 with alanine at …; assay: cytokine release
[12] = biological target: T11, MAGE-A1 peptide on HLA-A*02:01 (human); assay: intracellular IFNγ and IL2, 6 h; transduced human PBMCs; peptide-loaded T2 cells and 721.211-A2 cells that express the antigen; full-length, on cells; details: chains Valpha:Vbeta
[13] = biological target: T11, MAGE-A1 peptide on HLA-A*02:01 (human); assay: intracellular IFNγ; transduced human PBMCs (donor I); peptide titration on T2 cells; unit not printed for m2 (the others in pM); minimal activity not reached; full-length, on cells; details: chains Valpha:Vbeta
[14] = biological target: T4, MUC1 peptide on HLA-A*02:01; assay: killing
[15] = biological target: T12, MAGE-A1 peptide on HLA-A*02:01; assay: multimer staining

Row | Binder | % IFNγ+ cells after co-culture with 721.211-A2 cells [1] [% IFNγ+] | EC50 of IFNγ production (peptide concentration), T2 cells loaded with MAGE-A1 peptide [1] [pM] | EC50 of IFNγ production against WT hT27 [1] | EC50 of IL2 production against WT hT27 [1] | binding result [3] | binding result [4] | binding result [6] | binding result [11] | binding result [15] | other results
1 | hT27 TCR comprising W55L+Y56F mutations in the alpha chain (m9) (TCR, V domains shown) V domain 1: EDVEQSLFLSVREGDSSVINCTYTDSSSTYLYLFKQEPGAGLQLLTYIFSNMDMKQDQRLTVLLNKKDKHLSLRIADTQTGDSAIYFCAGSGGGTDKLIFGTGTRLQVFP V domain 2: AVVSQHPSWVICKSGTSVKIECRSLDFQATTMFWYRQFPKQSLMLMATSNEGSKATYEQGVEKDKFLINHASLTLSTLTVTSAHPEDSSFYICSAREPGQGPYEQYFGPGTRLTVTE | 5.4 | 0.275 | ~4 orders of magnitude lower than WT hT27 TCR | ~3 orders of magnitude lower than WT hT27 TCR |  |  |  |  |  | 
2 | hT27 TCR (TCR, V domains shown) Valpha: GEDVEQSLFLSVREGDSSVINCTYTDSSSTYLYWYKQEPGAGLQLLTYIFSNMDMKQDQRLTVLLNKKDKHLSLRIADTQTGDSAIYFCAGSGGGTDKLIFGTGTRLQVFP Vbeta: GAVVSQHPSWVICKSGTSVKIECRSLDFQATTMFWYRQFPKQSLMLMATSNEGSKATYEQGVEKDKFLINHASLTLSTLTVTSAHPEDSSFYICSAREPGQGPYEQYFGPGTRLTVT |  |  |  |  | no recognition | recognises | recognises | no recognition |  | binding result [14]: no recognition; binding result [8]: no recognition; binding result [9]: no recognition; binding result [10]: no recognition
3 | wild type (WT) hT27 TCR, MAGE-A1 specific (TCR) TCR alpha: RGEDVEQSLFLSVREGDSSVINCTYTDSSSTYLYWYKQEPGAGLQLLTYIFSNMDMKQDQRLTVLLNKKDKHLSLRIADTQTGDSAIYFCAGSGGGTDKLIFGTGTRLQVFPNIQNPEPAVYQLKDPRSQDSTLCLFTDFDSQINVPKTMESGTFITDKTVLDMKAMDSKSNGAIAWSNQTSFTCQDIFKETNATYPSSDVPCDATLTEKSFETDMNLNFQNLSVMGLRILLLKVAGFNLLMTLRLWSS TCR beta: AVVSQHPSWVICKSGTSVKIECRSLDFQATTMFWYRQFPKQSLMLMATSNEGSKATYEQGVEKDKFLINHASLTLSTLTVTSAHPEDSSFYICSAREPGQGPYEQYFGPGTRLTVTEDLRNVTPPKVSLFEPSKAEIANKQKATLVCLARGFFPDHVELSWWVNGKEVHSGVSTDPQAYKESNYSYCLSSRLRVSATFWHNPRNHFRCQVQFHGLSEEDKWPEGSPKPVTQNISAEAWGRADCGITSASYHQGVLSATILYEILLGKATLYAVLVSGLVLMAMVKKKNS | 3.3 | 3540 |  |  |  |  |  |  |  | 
4 | hT27 TCR comprising S109N mutation in the beta chain (m2) (TCR, V domains shown) V domain 1: RGEDVEQSLFLSVREGDSSVINCTYTDSSSTYLYWYKQEPGAGLQLLTYIFSNMDMKQDQRLTVLLNKKDKHLSLRIADTQTGDSAIYFCAGSGGGTDKLIFGTGTRLQVFP V domain 2: AVVSQHPSWVICKSGTSVKIECRSLDFQATTMFWYRQFPKQSLMLMATSNEGSKATYEQGVEKDKFLINHASLTLSTLTVTSAHPEDSSFYICNAREPGQGPYEQYFGPGTRLTVTE | 49.7 |  | ~4 orders of magnitude lower than WT hT27 TCR | ~3 orders of magnitude lower than WT hT27 TCR |  |  |  |  |  | 
5 | hT27 TCR comprising T63I mutation in the beta chain (m3) (TCR, V domains shown) V domain 1: RGEDVEQSLFLSVREGDSSVINCTYTDSSSTYLYWYKQEPGAGLQLLTYIFSNMDMKQDQRLTVLLNKKDKHLSLRIADTQTGDSAIYFCAGSGGGTDKLIFGTGTRLQVFP V domain 2: AVVSQHPSWVICKSGTSVKIECRSLDFQATTMFWYRQFPKQSLMLMAISNEGSKATYEQGVEKDKFLINHASLTLSTLTVTSAHPEDSSFYICSAREPGQGPYEQYFGPGTRLTVTE | 6.9 | 0.352 | ~4 orders of magnitude lower than WT hT27 TCR | ~3 orders of magnitude lower than WT hT27 TCR |  |  |  |  |  | 
6 | hT27 TCR comprising G125V mutation in the alpha chain (m8) (TCR) TCR alpha: RGEDVEQSLFLSVREGDSSVINCTYTDSSSTYLYWYKQEPGAGLQLLTYIFSNMDMKQDQRLTVLLNKKDKHLSLRIADTQTGDSAIYFCAGSGGGTDKLIFGTVTRLQVFPNIQNPEPAVYQLKDPRSQDSTLCLFTDFDSQINVPKTMESGTFITDKTVLDMKAMDSKSNGAIAWSNQTSFTCQDIFKETNATYPSSDVPCDATLTEKSFETDMNLNFQNLSVMGLRILLLKVAGFNLLMTLRLWSS TCR beta: AVVSQHPSWVICKSGTSVKIECRSLDFQATTMFWYRQFPKQSLMLMATSNEGSKATYEQGVEKDKFLINHASLTLSTLTVTSAHPEDSSFYICSAREPGQGPYEQYFGPGTRLTVTEDLRNVTPPKVSLFEPSKAEIANKQKATLVCLARGFFPDHVELSWWVNGKEVHSGVSTDPQAYKESNYSYCLSSRLRVSATFWHNPRNHFRCQVQFHGLSEEDKWPEGSPKPVTQNISAEAWGRADCGITSASYHQGVLSATILYEILLGKATLYAVLVSGLVLMAMVKKKNS | 3.8 | 0.982 | ~4 orders of magnitude lower than WT hT27 TCR | ~3 orders of magnitude lower than WT hT27 TCR |  |  |  |  |  | 

Further lines, with some results ahead:

Row | % IFNγ+ cells after co-culture with 721.211-A2 cells [1] [% IFNγ+] | EC50 of IFNγ production (peptide concentration), T2 cells loaded with MAGE-A1 peptide [1] [pM] | EC50 of IFNγ production against WT hT27 [1] | EC50 of IL2 production against WT hT27 [1] | binding result [3] | binding result [4] | binding result [6] | binding result [11] | binding result [15] | Binder | other results
7 |  |  |  |  | recognises | recognises | recognises | recognises |  | hT27 TCR m2 (beta chain S109N) (TCR, V domains shown) Valpha: GEDVEQSLFLSVREGDSSVINCTYTDSSSTYLYWYKQEPGAGLQLLTYIFSNMDMKQDQRLTVLLNKKDKHLSLRIADTQTGDSAIYFCAGSGGGTDKLIFGTGTRLQVFP Vbeta: GAVVSQHPSWVICKSGTSVKIECRSLDFQATTMFWYRQFPKQSLMLMATSNEGSKATYEQGVEKDKFLINHASLTLSTLTVTSAHPEDSSFYICNAREPGQGPYEQYFGPGTRLTVT | binding result [2]: recognises; binding result [5]: recognises; binding result [7]: recognises; binding result [8]: recognises; binding result [9]: recognises; binding result [10]: recognises; percent IFNγ+ cells towards 721.211-A2 cells [12]: 49.7%; EC50 of peptide [13]: 0.289
8 |  |  |  |  |  |  |  |  | recognises | hT27 TCR with beta chain S32T and S109N mutations (TCR, V domains shown) Valpha: GEDVEQSLFLSVREGDSSVINCTYTDSSSTYLYWYKQEPGAGLQLLTYIFSNMDMKQDQRLTVLLNKKDKHLSLRIADTQTGDSAIYFCAGSGGGTDKLIFGTGTRLQVFP Vbeta: GAVVSQHPSWVICKSGTTVKIECRSLDFQATTMFWYRQFPKQSLMLMATSNEGSKATYEQGVEKDKFLINHASLTLSTLTVTSAHPEDSSFYICNAREPGQGPYEQYFGPGTRLTVT | 
9 |  |  |  |  | recognises | recognises | recognises | recognises | recognises | hT27 TCR m8 (alpha chain G125V) (TCR, V domains shown) Valpha: GEDVEQSLFLSVREGDSSVINCTYTDSSSTYLYWYKQEPGAGLQLLTYIFSNMDMKQDQRLTVLLNKKDKHLSLRIADTQTGDSAIYFCAGSGGGTDKLIFGTVTRLQVFP Vbeta: GAVVSQHPSWVICKSGTSVKIECRSLDFQATTMFWYRQFPKQSLMLMATSNEGSKATYEQGVEKDKFLINHASLTLSTLTVTSAHPEDSSFYICSAREPGQGPYEQYFGPGTRLTVT | binding result [14]: no recognition; binding result [2]: recognises; binding result [7]: recognises
10 |  |  |  |  |  |  |  |  | recognises | hT27 TCR m7 (alpha chain G125A) (TCR, V domains shown) Valpha: GEDVEQSLFLSVREGDSSVINCTYTDSSSTYLYWYKQEPGAGLQLLTYIFSNMDMKQDQRLTVLLNKKDKHLSLRIADTQTGDSAIYFCAGSGGGTDKLIFGTATRLQVFP Vbeta: GAVVSQHPSWVICKSGTSVKIECRSLDFQATTMFWYRQFPKQSLMLMATSNEGSKATYEQGVEKDKFLINHASLTLSTLTVTSAHPEDSSFYICSAREPGQGPYEQYFGPGTRLTVT | 
11 |  |  |  |  | recognises | recognises | recognises | recognises | recognises | hT27 TCR m3 (beta chain T63I) (TCR, V domains shown) Valpha: GEDVEQSLFLSVREGDSSVINCTYTDSSSTYLYWYKQEPGAGLQLLTYIFSNMDMKQDQRLTVLLNKKDKHLSLRIADTQTGDSAIYFCAGSGGGTDKLIFGTGTRLQVFP Vbeta: GAVVSQHPSWVICKSGTSVKIECRSLDFQATTMFWYRQFPKQSLMLMAISNEGSKATYEQGVEKDKFLINHASLTLSTLTVTSAHPEDSSFYICSAREPGQGPYEQYFGPGTRLTVT | binding result [14]: no recognition; binding result [2]: recognises; binding result [7]: recognises
